Earlier results, collected in PMC5430804, “Structural and biochemical insights of CypA and AIF interaction” (Scientific Reports, 2017).

Target: AIF(Δ1-121) Δ1-121 (Homo sapiens) (UniProt O95831)
Sequence (O95831 1-121, stated change not applied): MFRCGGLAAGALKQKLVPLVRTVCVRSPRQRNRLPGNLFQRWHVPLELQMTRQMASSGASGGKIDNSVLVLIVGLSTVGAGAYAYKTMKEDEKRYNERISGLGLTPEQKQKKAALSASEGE

Chain of CypA (P62937 2-165): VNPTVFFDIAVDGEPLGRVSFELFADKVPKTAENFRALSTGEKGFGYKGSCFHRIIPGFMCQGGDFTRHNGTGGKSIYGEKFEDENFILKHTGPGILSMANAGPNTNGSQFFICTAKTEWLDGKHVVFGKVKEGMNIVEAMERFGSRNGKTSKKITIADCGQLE

## CypA (from UniProt P62937)
  Kd: 900 nM
